Reference: publication PMC5632138 (Journal of molecular biology, 2017)
Numbering of substitutions follows the chain as printed.

Legend:
Experiment in all cases: BLI
[1] = molecular target: T1, Full-length ETV4 (ETV4^1–484) (UniProt P43268 1-484)
T1 sequence (looked up): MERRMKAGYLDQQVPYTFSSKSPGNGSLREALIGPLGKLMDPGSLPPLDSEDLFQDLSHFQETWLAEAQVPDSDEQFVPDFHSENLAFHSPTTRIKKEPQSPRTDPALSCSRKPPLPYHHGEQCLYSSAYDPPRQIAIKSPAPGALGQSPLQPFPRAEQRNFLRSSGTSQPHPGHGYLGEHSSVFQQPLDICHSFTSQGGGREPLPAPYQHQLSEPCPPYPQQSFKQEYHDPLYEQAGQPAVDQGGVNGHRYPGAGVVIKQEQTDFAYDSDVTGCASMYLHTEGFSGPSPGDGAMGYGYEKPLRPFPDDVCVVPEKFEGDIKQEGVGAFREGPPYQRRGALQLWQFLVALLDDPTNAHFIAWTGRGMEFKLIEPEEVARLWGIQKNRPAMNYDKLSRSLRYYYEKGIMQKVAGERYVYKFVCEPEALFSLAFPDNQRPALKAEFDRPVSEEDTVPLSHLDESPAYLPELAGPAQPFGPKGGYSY

Full-length FOS = Full-length FOS (UniProt P01100 1-380)
[2] = molecular target: T2, Full-length ETV4 Thr363Ala (UniProt P43268 1-484, Thr363Ala)
T2 sequence (looked up): T1 sequence (looked up) with T363A

JUN/FOS heterodimers = JUN/FOS heterodimers (UniProt P05412 1-331; P01100 1-380)
[3] = molecular target: T3, Full-length ETV4 Ile372Ala (UniProt P43268 1-484, Ile372Ala)
T3 sequence (looked up): T1 sequence (looked up) with I372A

Full-length FOS, sequence (P01100 whole entry): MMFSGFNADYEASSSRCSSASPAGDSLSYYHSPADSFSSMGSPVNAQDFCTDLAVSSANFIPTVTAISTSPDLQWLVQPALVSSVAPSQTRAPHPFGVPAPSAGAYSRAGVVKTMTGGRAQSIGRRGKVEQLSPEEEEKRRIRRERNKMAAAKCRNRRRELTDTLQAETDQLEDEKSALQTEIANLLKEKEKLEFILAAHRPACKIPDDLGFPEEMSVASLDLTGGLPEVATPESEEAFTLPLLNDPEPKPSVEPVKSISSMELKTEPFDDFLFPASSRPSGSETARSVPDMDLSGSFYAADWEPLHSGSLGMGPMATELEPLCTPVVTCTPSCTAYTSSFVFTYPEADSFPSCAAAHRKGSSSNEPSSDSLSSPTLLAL
JUN/FOS heterodimers, sequence (P05412 whole entry, chain 1 of 2): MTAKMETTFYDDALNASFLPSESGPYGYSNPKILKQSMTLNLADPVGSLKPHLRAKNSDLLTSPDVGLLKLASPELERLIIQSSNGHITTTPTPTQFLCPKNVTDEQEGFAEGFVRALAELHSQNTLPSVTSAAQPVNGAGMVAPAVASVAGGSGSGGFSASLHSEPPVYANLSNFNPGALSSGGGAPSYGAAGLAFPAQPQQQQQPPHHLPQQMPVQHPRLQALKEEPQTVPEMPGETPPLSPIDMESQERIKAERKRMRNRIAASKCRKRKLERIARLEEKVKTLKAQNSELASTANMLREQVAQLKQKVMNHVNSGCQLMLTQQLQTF
JUN/FOS heterodimers, sequence (P01100 whole entry, chain 2 of 2): as the sequence (P01100 whole entry) above

- Kd [1]: 5 nM
- Kd (Full-length FOS): 9 nM
- binding result [2]: binds
- Kd (JUN/FOS heterodimers): 5 nM
- binding result [3]: binds
B1: MED25 ACID (residues 391–553), biotinylated ligand for biolayer interferometry (domain or fragment, human, UniProt Q71SY5 391-553, looked up)
chain: GQQSVSNKLLAWSGVLEWQEKPKPASVDANTKLTRSLPCQVYVNHGENLKTEQWPQKLIMQLIPQQLLTTLGPLFRNSRMVQFHFTNKDLESLKGLYRIMGNGFAGCVHFPHTAPCEVRVLMLLYSSKKKIFMGLIPYDQSGFVNGIRQVITNHKQVQQQKLE
modifications: biotin (biotinylated; D-biotin added at the induction point)
